Results taken from US20190309074A1, “DEGLYCOSYLATED ANTIBODY SPECIFICALLY BINDING TO CLEC14A AND USES THEREOF” (WOORI TECHNOLOGIES CORPORATION, priority 2016, published 2019).

Columns and labels:
[1] = test system: HCT116 human colorectal cancer cells; test: Matrigel plug angiogenesis assay, CD31 microvessel density; type: in vivo; conditions: single dose of 5 mg/kg, 14 days
Description: (§1) Matrigel plug angiogenesis assay was conducted in the presence of deglyco C1 IgG or bevacizumab with a single dose of 5 mg/kg or the absence thereof using HCT116 human colorectal cancer cells and bevacizumab-applied HCT116 human colorectal cancer cells (HCT116 and HCT116/Beva). 14 days later, the Matrigel plug was removed, and immunohistochemistry was conducted on CD31 and microvascular markers. A microvessel density was measured by quantifying CD31 positive per field in an image each obtained by a confocal microscope.

HCT116/Beva cells = test: as above; type: in vivo; conditions: single dose of 5 mg/kg, 14 days
Description: as §1

HUVECs [2] = test: HUVEC viability (cell counting Kit-8); type: cell-based, human; conditions: 2 days
Description: In order to evaluate effects of deglyco C1 IgG on toxicity of endothelial cells, after treatment with deglyco C1 IgG, viability of HUVECs was measured. Viability was measured in accordance with the manufacturer's manual through cell counting Kit-8 (#CK04-13, Dojindo Laboratories, Kumamoto, Japan).

[3] = in vivo toxicity in normal mouse; conditions: intravenous, twice a week
Description: In order to investigate in vivo toxicity of deglyco C1 IgG, deglyco C1 IgG was intravenously injected into a normal mouse twice a week, and hepatic and renal functions, body weight, and apoptosis conditions of hepatic and renal tissues between control groups and experimental groups were then compared. The hepatic function was investigated by measuring serum concentrations of glutamic-oxaloacetic transaminase (GOT), glutamic pyruvic transaminase (GPT), and total bilirubin (TBIL), and the renal function was investigated by measuring the concentrations of blood urea nitrogen (BUN) and creatinine (CRE). Apoptosis was measured by TUNEL staining.

HUVECs [4] = test: flow cytometry binding to endothelial cells; type: cell-based, human
Description: In order to identify whether or not deglyco C1 IgG binds to human endothelial cells, flow cytometry was conducted with HUVECs. […] In addition, in order to measure binding affinity of C1 IgG to hclec14a-ECD (extracellular domain of human clec14a), binding affinity of antibody-antigen binding was measured in real time. It can be seen that deglyco C1 IgG has a KD constant (equilibrium dissociation constant) of 6 nM, which is similar to that of parent antibody IgG (FIG. 3C).

[5] = test system: VEGF-dependent microvessel formation; test: mouse Matrigel plug assay, VEGF-dependent microvessel formation; type: in vivo
Description: In order to observe in vivo efficacies of deglyco C1 IgG on VEGF-dependent angiogenesis, a mouse Matrigel model was established, hemoglobin level was measured as a marker of microvessel formation, and inhibitory activities against microvessel formation of deglyco C1 IgG and bevacizumab were compared by a mouse Matrigel plug assay.

[6] = test system: VEGF-dependent blood vessel growth in rat aorta; test: ex vivo rat aortic ring assay; conditions: cultured in combination with VEGF
Description: In order to further investigate effects of deglyco C1 IgG on VEGF-dependent angiogenesis, ex vivo rat aortic ring assay was conducted in the presence or absence of deglyco C1 IgG and bevacizumab. Blood vessels were almost not grown in the rat aorta in endothelial basal medium (EBM), whereas most blood vessels were grown in the rat aorta under VEGF expression conditions.

CFPAC-1 cells = test: tumor cell-derived Matrigel plug angiogenesis assay; type: in vivo, mouse; conditions: single dose of 10 mg/kg, 2 weeks, nude mice
Description: (§2) In order to investigate in vivo effects of deglyco C1 IgG on tumor angiogenesis, tumor cell-derived Matrigel plug angiogenesis assay was conducted on thymus-removed nude mice. SNU182- and CFPAC-1 cells and U87 human glioma cells containing Matrigel were transplanted into thymus-removed nude mice in the presence of deglyco C1 IgG and bevacizumab with a single dose of 10 mg/kg or in the absence thereof. 2 weeks later, the Matrigel plug was removed and the total hemoglobulin content of each group was measured with an ELISA reader.

SNU182 cells = test: as above; type: in vivo, mouse; conditions: single dose of 10 mg/kg, 2 weeks, nude mice
Description: as §2

U87 human glioma cells = test: as above; type: in vivo, mouse; conditions: single dose of 10 mg/kg, 2 weeks, nude mice
Description: as §2

U87 human glioma = test: U87 tumor growth; type: in vivo
[7] = test system: phosphorylation of VEGFR, Akt and ERK; test: immunoblot of VEGF-dependent signaling in HUVECs; type: cell-based, human; conditions: VEGF-treated HUVECs
Description: In order to investigate effects of deglyco C1 IgG on VEGF-dependent signaling actions in endothelial cells, VEGF-treated HUVECs were subjected to immunoblot analysis in the presence or absence of deglyco C1 IgG to monitor changes in phosphorylation of VEGFR (VEGF receptor), Akt and ERK (extracellular signal-regulated kinase).

[8] = test system: binding of clec14a-CTLD to HUVECs; test: cell ELISA: hclec14a-CTLD-Fc-HRP binding to HUVECs; type: cell-based, human; conditions: increasing antibody concentration
Description: In order to analyze action mechanisms of deglyco C1 IgG at a molecule-scale, specifically, in angiogenesis, HUVECs were treated with hclec14a-CTLD-Fc-HRP (HRP-labeled hclec14a-CTLD-Fc) in the absence or presence of an increasing concentration of parent antibody IgG or deglyco C1 IgG.

HUVEC migration = HUVEC migration (wound healing) assay; type: cell-based, human; conditions: % of MOCK
Description: Genetic mutation introduced during antibody engineering induces unpredicted defects, resulting in deterioration in antibody functions. In order to isolate antibodies for suppressing clec14a-mediated angiogenesis, tube formation and endothelial cell migration assay using human umbilical vein endothelial cells (HUVECs) were conducted in the presence or absence of clone 1 IgG and deglyco C1-C4 IgGs. Among the four types of deglyco IgGs, deglyco C1 IgG was selected as a candidate antibody. […] In addition, it can be seen that deglyco C1 IgG includes desired alterations (N32R/N33C/S34G) in the amino acid sequence in light chain CDR1.
In order to compare in vitro angiogenesis suppression effect between deglyco C1 IgG and bevacizumab, tube formation and migration assay were conducted in the presence or absence of parent antibody IgG, deglyco C1 IgG or bevacizumab as a positive control group.

HUVEC activity = test: endothelial cell activation (VCAM-1, ICAM-1 expression); type: cell-based, human
Description: In addition, the morphology of HUVEC was evaluated in the presence or absence of deglyco C1 IgG using immunocytochemistry. […] In order to evaluate effects of deglyco C1 IgG on the activity of endothelial cells, which is an initial inflammatory response to a harmful stimulus, HUVECs were treated with deglyco C1 IgG, and expression of an endothelial cell activity marker including VCAM-1 (vascular cell adhesion molecule-1) and ICAM-1 (intercellular cell adhesion molecule-1) was measured to monitor HUVEC activity. Human tumor necrosis factor-alpha (hTNFα) was used as a positive control group for endothelial cell activity.

B1: deglyco C1 IgG: deglycosylated clone 1 IgG; light chain CDR1 TGSSSNIGRCGVT (SEQ ID NO: 2), N32R/N33C/S34G (antibody, V domains shown)
VH: EVQLVESGGGLVQPGGSLRLSCAVSGFTFSGYDMSWIRQAPGKGLEWVAGIYPDGGNTYYADSVKGRFTISRDDSKNTFYLQMNSLRAEDTAVYYCARGATWWVLGPFDYWGQGTLVTVSS
VL: DIQLTQSPSSLSASVGDRVTITCTGSSSNIGRCGVTWYQQKPGKAPKLLIYADSHRPSGVPSRFSGSGSGTDFTLTISSLQPEDFATYYCGAWDDSLSGYVFGQGTKVEIKR
microvessel formation (CD31 positive per field), HCT116 [1]: significantly reduced microvessel formation ability | microvessel formation (CD31 positive per field), HCT116/Beva (HCT116/Beva cells): significantly suppressed | viability of HUVECs (HUVECs [2]): did not exhibit cytotoxic effects | apoptosis of hepatic and renal tissues (TUNEL) [3]: apoptosis conditions were observed | body weight [3]: no significant change in body weight | hepatic and renal functions (GOT, GPT, TBIL, BUN, CRE) [3]: no significant change | binding to surfaces of HUVECs (HUVECs [4]): specifically bound to the surfaces of HUVECs | hemoglobin content (microvessel formation) [5]: significantly reduced a hemoglobin content | number of blood vessels grown in the rat aorta [6]: reduced the number of blood vessels grown in the rat aorta | hemoglobin content, CFPAC-1-derived (CFPAC-1 cells): significantly reduced hemoglobin | hemoglobin content, SNU182-derived (SNU182 cells): significantly reduced hemoglobin | hemoglobin content, U87-derived (U87 human glioma cells): significantly reduced hemoglobin | body weight (U87 human glioma; U87 tumor model): no impact on body weight | tumor size of U87 cells (U87 human glioma; measured weekly for one month): significantly reduces the tumor sizes | VEGF-dependent phosphorylation of VEGFR, Akt and ERK [7]: almost no effect | suppression of binding of clec14a-CTLD to HUVECs [8]: significantly suppressed | inhibitory activity against HUVEC migration (HUVEC migration): most excellent inhibitory activity | inhibitory activity against HUVEC migration (HUVEC migration; listed as Deglyco C1 IgG): inhibited migration to a similar extent to bevacizumab | HUVEC activity (VCAM-1, ICAM-1 expression) (HUVEC activity): almost no impact
